Measured values taken from publication PMC11931667, “A new view of missense mutations in α‐mannosidosis using molecular dynamics conformational ensembles” (Protein Science : A Publication of the Protein Society, 2025).

Target: the molecule itself
Assay: native gel or EMSA; PAGE run under native conditions and Western blot with anti-His IgG of hLAMAN expressed in K. phaffii for the indicated time periods; single band at approx. 230 kDa

B1: Human lysosomal α‐mannosidase (enzyme, UniProt O00754 50-1011, looked up)
chain: GGYETCPTVQPNMLNVHLLPHTHDDVGWLKTVDQYFYGIKNDIQHAGVQYILDSVISALLADPTRRFIYVEIAFFSRWWHQQTNATQEVVRDLVRQGRLEFANGGWVMNDEAATHYGAIVDQMTLGLRFLEDTFGNDGRPRVAWHIDPFGHSREQASLFAQMGFDGFFFGRLDYQDKWVRMQKLEMEQVWRASTSLKPPTADLFTGVLPNGYNPPRNLCWDVLCVDQPLVEDPRSPEYNAKELVDYFLNVATAQGRYYRTNHTVMTMGSDFQYENANMWFKNLDKLIRLVNAQQAKGSSVHVLYSTPACYLWELNKANLTWSVKHDDFFPYADGPHQFWTGYFSSRPALKRYERLSYNFLQVCNQLEALVGLAANVGPYGSGDSAPLNEAMAVLQHHDAVSGTSRQHVANDYARQLAAGWGPCEVLLSNALARLRGFKDHFTFCQQLNISICPLSQTAARFQVIVYNPLGRKVNWMVRLPVSEGVFVVKDPNGRTVPSDVVIFPSSDSQAHPPELLFSASLPALGFSTYSVAQVPRWKPQARAPQPIPRRSWSPALTIENEHIRATFDPDTGLLMEIMNMNQQLLLPVRQTFFWYNASIGDNESDQASGAYIFRPNQQKPLPVSRWAQIHLVKTPLVQEVHQNFSAWCSQVVRLYPGQRHLELEWSVGPIPVGDTWGKEVISRFDTPLETKGRFYTDSNGREILERRRDYRPTWKLNQTEPVAGNYYPVNTRIYITDGNMQLTVLTDRSQGGSSLRDGSLELMVHRRLLKDDGRGVSEPLMENGSGAWVRGRHLVLLDTAQAAAAGHRLLAEQEVLAPQVVLAPGGGAAYNLGAPPRTQFSGLRRDLPPSVHLLTLASWGPEMVLLRLEHQFAVGEDSGRNLSAPVTLNLRDLFSTFTITRLQETTLVANQLREAASRLKWTTNTGPTPHQTPYQLDPANITLEPMEIRTFLASVQWKEVDG
notes: human lysosomal alpha-mannosidase (hLAMAN, EC 3.2.1.24), gene MAN2B1; That vector probably adds the alpha-factor secretion signal; it speaks of a homodimer of the polypeptides A-E, (A-E)2; also called hLAMAN; MAN2B1; source: K. phaffii X33 (pPICZalpha), methanol-induced; aliquots of pellet and supernatant analysed, not purified
With B1 the “stoichiometry N” value was 2.
